{"source": "patent US5252705", "data": [{"target": "hPTH (1-34) (human) (UniProt P01270)", "set-up": "unit not given beside the values", "values": [{"substance": "Compound 1 (Ser-Glu-Ile-Gln-Leu-Met-His-Asn-Leu-Gly-Lys-Ser-Ile-Gln-Asp-Leu-Arg-Arg-Arg-Phe-Phe-Leu-His-His-Leu-Ile-Ala-Glu-Ile-His-Thr-Ala-NH2) (peptide)", "IC50: 50% inhibition of cAMP production in cultured mouse osteoblast MC3T3-E1 cells": 0.007}, {"substance": "[Tyr^34]-hPTH (3-34)-NH2 (from UniProt P01270) (peptide)", "IC50: 50% inhibition of cAMP production in cultured mouse osteoblast MC3T3-E1 cells": 1}, {"substance": "Compound 3 (Ile-Gln-Leu-Met-His-Asn-Leu-Gly-Lys-Ser-Ile-Gln-Asp-Leu-Arg-Arg-Arg-Phe-Phe-Leu-His-His-Leu-Ile-Ala-Glu-Ile-His-Thr-Ala-NH2) (peptide)", "IC50: 50% inhibition of cAMP production in cultured mouse osteoblast MC3T3-E1 cells": 0.015}]}]}
